Assay results reported in publication PMC5799254, “Target identification of small molecules using large-scale CRISPR-Cas mutagenesis scanning of essential genes” (Nature Communications, 2018).

Biological target: the molecule itself
Experiment: crystal structure; co-crystal of NAMPT (10 mg/mL) with a 5-fold excess of KPT-9274; hanging drops, 20 °C, reservoir 0.2 M NaCl, 0.1 M Tris pH 8.5, 22% PEG 3350

B1: nicotinamide phosphoribosyltransferase (NAMPT) (enzyme, human, UniProt P43490 1-491, looked up)
chain: MNPAAEAEFNILLATDSYKVTHYKQYPPNTSKVYSYFECREKKTENSKLRKVKYEETVFYGLQYILNKYLKGKVVTKEKIQEAKDVYKEHFQDDVFNEKGWNYILEKYDGHLPIEIKAVPEGFVIPRGNVLFTVENTDPECYWLTNWIETILVQSWYPITVATNSREQKKILAKYLLETSGNLDGLEYKLHDFGYRGVSSQETAGIGASAHLVNFKGTDTVAGLALIKKYYGTKDPVPGYSVPAAEHSTITAWGKDHEKDAFEHIVTQFSSVPVSVVSDSYDIYNACEKIWGEDLRHLIVSRSTQAPLIIRPDSGNPLDTVLKVLEILGKKFPVTENSKGYKLLPPYLRVIQGDGVDINTLQEIVEGMKQKMWSIENIAFGSGGGLLQKLTRDLLNCSFKCSYVVTNGLGINVFKDPVADPNKRSKKGRLSLHRTPAGNFVTLEEGKGDLEEYGQDLLHTVFKNGKVTKSYSFDEIRKNAQLNIELEAAHH
notes: nicotinamide phosphoribosyltransferase (NAMPT, NMPRTase), human, full length; also called NMPRTase
  stoichiometry N: 2
